From article PMC10681739, “High-throughput data and modeling reveal insights into the mechanisms of cooperative DNA-binding by transcription factor proteins”

Biological target: RUNX1 (Homo sapiens, UniProt Q01196)
Test: gcPBM; 2 nM RUNX1
Conditions: tags: N-terminal GST (pDEST15), kept (PMC6008103); label: surface-attached array probe

Chain of RUNX1 (Q01196 whole entry): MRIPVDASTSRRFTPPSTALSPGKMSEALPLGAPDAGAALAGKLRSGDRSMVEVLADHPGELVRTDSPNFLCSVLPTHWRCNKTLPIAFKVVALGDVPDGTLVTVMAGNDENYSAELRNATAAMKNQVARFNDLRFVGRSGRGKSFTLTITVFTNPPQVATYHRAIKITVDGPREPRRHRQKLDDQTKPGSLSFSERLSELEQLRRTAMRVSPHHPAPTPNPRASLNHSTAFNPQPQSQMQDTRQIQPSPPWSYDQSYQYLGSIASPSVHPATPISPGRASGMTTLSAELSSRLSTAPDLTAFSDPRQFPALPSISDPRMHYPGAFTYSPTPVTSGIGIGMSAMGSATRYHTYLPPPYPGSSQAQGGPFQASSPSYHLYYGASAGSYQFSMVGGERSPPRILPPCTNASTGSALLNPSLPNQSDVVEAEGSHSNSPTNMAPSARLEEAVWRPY

Binder	binding signal
Table S3 B row 3965 (dsDNA) DNA 1: GGAGAAACCGCAACTCGGAACTACGGGAACGGAGGA DNA 2: TCCTCCGTTCCCGTAGTTCCGAGTTGCGGTTTCTCC	26700 PBM fluorescence, median of replicate spots
Table S3 B row 1477 (dsDNA) DNA 1: TTCTTTGGTCAACCGCAAGCCTCTGCCGCGTCTCGC DNA 2: GCGAGACGCGGCAGAGGCTTGCGGTTGACCAAAGAA	37300 PBM fluorescence, median of replicate spots
Table S3 B row 1695 (dsDNA) DNA 1: GCACAAAACCGCACAAACAGCCTGAAGCACAGCCCC DNA 2: GGGGCTGTGCTTCAGGCTGTTTGTGCGGTTTTGTGC	16300 PBM fluorescence, median of replicate spots
Table S3 B row 272 (dsDNA) DNA 1: ACGAGGTTGCGGTTTCTCCACCTCCTCAACAACCTG DNA 2: CAGGTTGTTGAGGAGGTGGAGAAACCGCAACCTCGT	32700 PBM fluorescence, median of replicate spots
Table S3 B row 3235 (dsDNA) DNA 1: AAGTCAAAACCGCAAACGCTCAGTAAAAAAGACTCT DNA 2: AGAGTCTTTTTTACTGAGCGTTTGCGGTTTTGACTT	42400 PBM fluorescence, median of replicate spots
Table S3 B row 474 (dsDNA) DNA 1: TCGTATTTGCGGTCAGCCTCTTACGTAATGTGCTTG DNA 2: CAAGCACATTACGTAAGAGGCTGACCGCAAATACGA	29200 PBM fluorescence, median of replicate spots
Table S3 B row 1191 (dsDNA) DNA 1: CTCTTGCGGTCAGGTCACGCCGCCTGAAGCCGCCCC DNA 2: GGGGCGGCTTCAGGCGGCGTGACCTGACCGCAAGAG	30900 PBM fluorescence, median of replicate spots
Table S3 B row 2418 (dsDNA) DNA 1: TTCTCTGCACTGCGGTTTACTCAGAAAGAAGACAAC DNA 2: GTTGTCTTCTTTCTGAGTAAACCGCAGTGCAGAGAA	10900 PBM fluorescence, median of replicate spots
Table S3 B row 1072 (dsDNA) DNA 1: CTTCTTCTTGCGGTTTCAATCACAGTAAACAGACGT DNA 2: ACGTCTGTTTACTGTGATTGAAACCGCAAGAAGAAG	27500 PBM fluorescence, median of replicate spots
Table S3 B row 852 (dsDNA) DNA 1: CGGCAGCTTGCGGTTAGCCGTTCTTTCAGCCCAGTT DNA 2: AACTGGGCTGAAAGAACGGCTAACCGCAAGCTGCCG	48900 PBM fluorescence, median of replicate spots
Table S3 B row 278 (dsDNA) DNA 1: TAAGTGTTGTGGTTTTTTAGTTTACTGTTCAGTTGC DNA 2: GCAACTGAACAGTAAACTAAAAAACCACAACACTTA	20300 PBM fluorescence, median of replicate spots
Table S3 B row 3051 (dsDNA) DNA 1: GGCTTGTGGTTTGGTGATTGTACGTCCTTATTGATA DNA 2: TATCAATAAGGACGTACAATCACCAAACCACAAGCC	13000 PBM fluorescence, median of replicate spots
Table S3 B row 584 (dsDNA) DNA 1: GTCCTCTTTGTGGTTTCCATTTGCTTTGTGAAAGAG DNA 2: CTCTTTCACAAAGCAAATGGAAACCACAAAGAGGAC	34700 PBM fluorescence, median of replicate spots
Table S3 B row 48 (dsDNA) DNA 1: CCTGCTGCGGTCAGCCCTGTCTCTTTCTGTTTCTGC DNA 2: GCAGAAACAGAAAGAGACAGGGCTGACCGCAGCAGG	16100 PBM fluorescence, median of replicate spots
Table S3 B row 1866 (dsDNA) DNA 1: TCTGCGGTCAGCTGACTGTGCCAGAGTGCCGCGGGG DNA 2: CCCCGCGGCACTCTGGCACAGTCAGCTGACCGCAGA	16100 PBM fluorescence, median of replicate spots
Table S3 B row 2604 (dsDNA) DNA 1: CGGGTTAAACCGCAGCCGCGCCCACACTTTCGGGGT DNA 2: ACCCCGAAAGTGTGGGCGCGGCTGCGGTTTAACCCG	28100 PBM fluorescence, median of replicate spots
Table S3 B row 3040 (dsDNA) DNA 1: GCCTTTTGTGGTTTGTACCACTGCCTGCCTTTTCTG DNA 2: CAGAAAAGGCAGGCAGTGGTACAAACCACAAAAGGC	17300 PBM fluorescence, median of replicate spots
Table S3 B row 320 (dsDNA) DNA 1: AGAAACCACAAAACCCCATTTGAAATTCAGCCGTGC DNA 2: GCACGGCTGAATTTCAAATGGGGTTTTGTGGTTTCT	15200 PBM fluorescence, median of replicate spots
Table S3 B row 1768 (dsDNA) DNA 1: TGGTTGTGGTTTGGAGATTCTGATGTCATTTGCTGT DNA 2: ACAGCAAATGACATCAGAATCTCCAAACCACAACCA	18000 PBM fluorescence, median of replicate spots
Table S3 B row 1798 (dsDNA) DNA 1: CTCTCTTGCGGTTTGCAGCCAGATCACCTCCCATAC DNA 2: GTATGGGAGGTGATCTGGCTGCAAACCGCAAGAGAG	37400 PBM fluorescence, median of replicate spots
Table S3 B row 226 (dsDNA) DNA 1: TTTCTTTCTGTGGTTTATCCTTATTTGCTGGCTTCG DNA 2: CGAAGCCAGCAAATAAGGATAAACCACAGAAAGAAA	12500 PBM fluorescence, median of replicate spots
Table S3 B row 531 (dsDNA) DNA 1: ATAGCTTGTGGTTTATGGGTCAGCAAGTTGAGGGTG DNA 2: CACCCTCAACTTGCTGACCCATAAACCACAAGCTAT	13900 PBM fluorescence, median of replicate spots
Table S3 B row 3806 (dsDNA) DNA 1: TCAGTCTTGTGGTTAAGGGAGGCAGGGTACTGTTGG DNA 2: CCAACAGTACCCTGCCTCCCTTAACCACAAGACTGA	20500 PBM fluorescence, median of replicate spots

Binder	binding signal
Table S3 B row 3657 (dsDNA) DNA 1: CCACCCAAAACCACAACCATTTGCCCCATCACTTTG DNA 2: CAAAGTGATGGGGCAAATGGTTGTGGTTTTGGGTGG	31700 PBM fluorescence, median of replicate spots
Table S3 B row 2269 (dsDNA) DNA 1: ACTGTTATTGTGGTTTTTGGGGACTGCCTCTTTGTC DNA 2: GACAAAGAGGCAGTCCCCAAAAACCACAATAACAGT	12500 PBM fluorescence, median of replicate spots
Table S3 B row 2123 (dsDNA) DNA 1: CTCTGAACGTCCTCTCTTTTAACCACAACTTACTAC DNA 2: GTAGTAAGTTGTGGTTAAAAGAGAGGACGTTCAGAG	10800 PBM fluorescence, median of replicate spots
Table S3 B row 2138 (dsDNA) DNA 1: TGTGAAACCGCAGGGGTTCAGGGAGGCAGTGTAAGC DNA 2: GCTTACACTGCCTCCCTGAACCCCTGCGGTTTCACA	11000 PBM fluorescence, median of replicate spots
Table S3 B row 1801 (dsDNA) DNA 1: ACTCTAACCGCAGTGACGTGGGACCTCCTCGGCAGG DNA 2: CCTGCCGAGGAGGTCCCACGTCACTGCGGTTAGAGT	46700 PBM fluorescence, median of replicate spots
Table S3 B row 1277 (dsDNA) DNA 1: GGGGTGCGGTTTAGGGCGGGTTTTTTGCGCCTTGGA DNA 2: TCCAAGGCGCAAAAAACCCGCCCTAAACCGCACCCC	12400 PBM fluorescence, median of replicate spots
Table S3 B row 3390 (dsDNA) DNA 1: TTTCATATTTGTGGTTTTGGTGTTGCCTCTTACACA DNA 2: TGTGTAAGAGGCAACACCAAAACCACAAATATGAAA	18800 PBM fluorescence, median of replicate spots
Table S3 B row 3344 (dsDNA) DNA 1: CCGAAGCCTGCGGTTTCATGTGGGAGCAAGCGGCCT DNA 2: AGGCCGCTTGCTCCCACATGAAACCGCAGGCTTCGG	37500 PBM fluorescence, median of replicate spots
Table S3 B row 2332 (dsDNA) DNA 1: TGTCAAAGTTTGTGGTGAGTGGCTTGCTGGAGACCC DNA 2: GGGTCTCCAGCAAGCCACTCACCACAAACTTTGACA	13400 PBM fluorescence, median of replicate spots
Table S3 B row 3420 (dsDNA) DNA 1: GGTTTGTGGTTTCCCCTTACTGTCTCCACTGCCTTC DNA 2: GAAGGCAGTGGAGACAGTAAGGGGAAACCACAAACC	28800 PBM fluorescence, median of replicate spots
Table S3 B row 1134 (dsDNA) DNA 1: GTTAAGCTGCGGTCAGACCTAAGGGAGGATCTGGCT DNA 2: AGCCAGATCCTCCCTTAGGTCTGACCGCAGCTTAAC	17500 PBM fluorescence, median of replicate spots
Table S3 B row 158 (dsDNA) DNA 1: GTCTCAACCGCAAGGAGGTGTTACGTCCTCTTTTAC DNA 2: GTAAAAGAGGACGTAACACCTCCTTGCGGTTGAGAC	12800 PBM fluorescence, median of replicate spots
Table S3 B row 2433 (dsDNA) DNA 1: GGGTTTTGTGGTTAGCAAGTTCCAGCTCCCGTCGCA DNA 2: TGCGACGGGAGCTGGAACTTGCTAACCACAAAACCC	18900 PBM fluorescence, median of replicate spots
Table S3 B row 2387 (dsDNA) DNA 1: CATTTCTGTTGCGGTTGGCAGCGTCTCCATCCACGG DNA 2: CCGTGGATGGAGACGCTGCCAACCGCAACAGAAATG	12200 PBM fluorescence, median of replicate spots
Table S3 B row 2934 (dsDNA) DNA 1: TTTTTGTGGTTTAGCCCTCAGAGCTCCCTGCCAGAG DNA 2: CTCTGGCAGGGAGCTCTGAGGGCTAAACCACAAAAA	23200 PBM fluorescence, median of replicate spots
Table S3 B row 2218 (dsDNA) DNA 1: TCCTTGCGGTTTGCTTTCGCCGTCTCCGAACCGAGG DNA 2: CCTCGGTTCGGAGACGGCGAAAGCAAACCGCAAGGA	30700 PBM fluorescence, median of replicate spots
Table S3 B row 943 (dsDNA) DNA 1: TGTTTGCGGTTTAGACCCCAAAGATTCATGTTGGTA DNA 2: TACCAACATGAATCTTTGGGGTCTAAACCGCAAACA	38700 PBM fluorescence, median of replicate spots
Table S3 B row 3458 (dsDNA) DNA 1: CTGATTGTGGTTTTGATTTGCAATTCCCTGATGATT DNA 2: AATCATCAGGGAATTGCAAATCAAAACCACAATCAG	25900 PBM fluorescence, median of replicate spots
Table S3 B row 2601 (dsDNA) DNA 1: CTGCTTGTGGTTTTGGTCTGCAGCAAGCTGGGCTGC DNA 2: GCAGCCCAGCTTGCTGCAGACCAAAACCACAAGCAG	14600 PBM fluorescence, median of replicate spots
Table S3 B row 741 (dsDNA) DNA 1: CTTAAAACCACAACACAATAACACCAGAGGACATGA DNA 2: TCATGTCCTCTGGTGTTATTGTGTTGTGGTTTTAAG	14300 PBM fluorescence, median of replicate spots
Table S3 B row 1506 (dsDNA) DNA 1: GTTCCTGGTTTGTGGTTATGATTTGCTGTTTGCCTT DNA 2: AAGGCAAACAGCAAATCATAACCACAAACCAGGAAC	24200 PBM fluorescence, median of replicate spots
Table S3 B row 2222 (dsDNA) DNA 1: CAGAAACCGCAGAACTGAGCTGACGACCCGGGAGTG DNA 2: CACTCCCGGGTCGTCAGCTCAGTTCTGCGGTTTCTG	42300 PBM fluorescence, median of replicate spots
